Assays:
PREP1HD KKKK->AAAA = target: T1, PREP1HD KKKK->AAAA (UniProt P55347 240-344, K331A;K333A;K334A;K335A); experiment: fluorescence polarization; FP and EMSA: 20 mM Na/K phosphate pH 7.2, 150 mM NaCl, 5% glycerol, 1 mM TCEP, room temperature (FP 9 nM DNA, 30 min; EMSA gel run at 4 C in 0.5x TBE); NMR: 20; details: protein: recombinant; tags: GST cleaved (pGEX-6P); label: 5' 6-FAM (FP); unlabeled in EMSA and NMR
T1 sequence: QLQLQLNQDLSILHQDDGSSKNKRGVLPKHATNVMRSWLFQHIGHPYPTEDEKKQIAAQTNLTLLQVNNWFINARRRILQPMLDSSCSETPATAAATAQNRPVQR

HOXB1HD;PBX1HD [1] = target: T2, HOXB1HD;PBX1HD (;, UniProt P14653;P40424 171-266;227-317, |); experiment: fluorescence polarization; HOXB1HD titrated into preformed PBX1HD:PMH; FP and EMSA: 20 mM Na/K phosphate pH 7.2, 150 mM NaCl, 5% glycerol, 1 mM TCEP, room temperature (FP 9 nM DNA, 30 min; EMSA gel run at 4 C in 0.5x TBE); NMR: 20; details: protein: recombinant;recombinant; tags: GST cleaved (pGEX-6P);GST cleaved (pGEX-6P); copies: 1;1; label: 5' 6-FAM (FP); unlabeled in EMSA and NMR
T2 sequence (P14653 171-266, chain 1 of 2, one chain of several): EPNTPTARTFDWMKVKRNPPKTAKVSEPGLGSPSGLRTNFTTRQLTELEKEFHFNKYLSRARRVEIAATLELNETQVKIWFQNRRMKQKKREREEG

PREP1hd;PBX1HD [2] = target: T3, PREP1hd;PBX1HD (;, UniProt P55347;P40424 257-325;227-317, |); experiment: fluorescence polarization; PREP1hd titrated into preformed PBX1HD (0.3 uM):PMH; FP and EMSA: 20 mM Na/K phosphate pH 7.2, 150 mM NaCl, 5% glycerol, 1 mM TCEP, room temperature (FP 9 nM DNA, 30 min; EMSA gel run at 4 C in 0.5x TBE); NMR: 20; details: protein: recombinant;recombinant; tags: GST cleaved (pGEX-6P);GST cleaved (pGEX-6P); copies: 1;1; label: 5' 6-FAM (FP); unlabeled in EMSA and NMR
T3 sequence 1: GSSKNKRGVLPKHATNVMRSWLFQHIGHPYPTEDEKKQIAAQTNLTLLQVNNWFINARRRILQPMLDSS
T3 sequence 2: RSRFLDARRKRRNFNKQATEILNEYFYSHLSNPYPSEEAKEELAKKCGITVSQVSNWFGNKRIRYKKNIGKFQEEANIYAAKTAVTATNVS

PREP1HD;PBX1HD [3] = target: T4, PREP1HD;PBX1HD (;, UniProt P55347;P40424 240-344;227-317, |); experiment: fluorescence polarization; PREP1HD titrated into preformed PBX1HD (0.3 uM):PMH; FP and EMSA: 20 mM Na/K phosphate pH 7.2, 150 mM NaCl, 5% glycerol, 1 mM TCEP, room temperature (FP 9 nM DNA, 30 min; EMSA gel run at 4 C in 0.5x TBE); NMR: 20; details: protein: recombinant;recombinant; tags: GST cleaved (pGEX-6P);GST cleaved (pGEX-6P); copies: 1;1; label: 5' 6-FAM (FP); unlabeled in EMSA and NMR
T4 sequence 1: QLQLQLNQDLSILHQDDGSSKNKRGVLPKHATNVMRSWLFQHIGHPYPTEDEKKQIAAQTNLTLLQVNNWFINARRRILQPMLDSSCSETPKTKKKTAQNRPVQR
T4 sequence 2: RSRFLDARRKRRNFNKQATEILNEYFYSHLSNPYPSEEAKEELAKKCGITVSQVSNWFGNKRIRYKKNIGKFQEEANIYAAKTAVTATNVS

HOXB1HD;PBX1HD [4] = target: T2, HOXB1HD;PBX1HD; experiment: fluorescence polarization; HOXB1HD titrated into preformed PBX1HD:PH; FP and EMSA: 20 mM Na/K phosphate pH 7.2, 150 mM NaCl, 5% glycerol, 1 mM TCEP, room temperature (FP 9 nM DNA, 30 min; EMSA gel run at 4 C in 0.5x TBE); NMR: 20; details: protein: recombinant;recombinant; tags: GST cleaved (pGEX-6P);GST cleaved (pGEX-6P); copies: 1;1; label: 5' 6-FAM (FP); unlabeled in EMSA
HOXB1HD;PBX1HD [5] = target: T2, HOXB1HD;PBX1HD; experiment: fluorescence polarization; HOXB1HD titrated into preformed PBX1HD:control; FP and EMSA: 20 mM Na/K phosphate pH 7.2, 150 mM NaCl, 5% glycerol, 1 mM TCEP, room temperature (FP 9 nM DNA, 30 min; EMSA gel run at 4 C in 0.5x TBE); NMR: 20; details: protein: recombinant;recombinant; tags: GST cleaved (pGEX-6P);GST cleaved (pGEX-6P); copies: 1;1; label: 5' 6-FAM (FP); unlabeled in EMSA

B1: PMH (dsDNA)
DNA 1: AGTGATTGACAGATTC
DNA 2: GAATCTGTCAATCACT
- Kd (PREP1HD KKKK->AAAA): 21.8 ± 0.8 µM
- Kd (HOXB1HD;PBX1HD [1]): 1.3 ± 0.3 µM
- Kd (PREP1hd;PBX1HD [2]): 5.1 ± 1.8 µM
- Kd (PREP1HD;PBX1HD [3]): 1.9 ± 0.5 µM

B2: PH (dsDNA)
DNA 1: AGAGTGATTGATAAGG
DNA 2: CCTTATCAATCACTCT
- Kd (HOXB1HD;PBX1HD [4]): 0.39 ± 0.1 µM

B3: Control (dsDNA)
DNA 1: AGGATAACCTGGGATT
DNA 2: AATCCCAGGTTATCCT
- Kd (HOXB1HD;PBX1HD [5]): 34.7 ± 1.7 µM

— paper PMC5240567, “New Insights into Cooperative Binding of Homeodomain Transcription Factors PREP1 and PBX1 to DNA”
